Laboratory results reported in the supplement of paper PMC10126150.
± gives the standard deviation of the averaged measurements.

Tested on: ATP
Experiment: switch fluorescence ratio, 500 uM ATP over buffer (Cy3 cluster intensity, sum of 5 cycles each) (fold (ratio)); higher = stronger signal-on switching upon ATP binding; sequences stand for … in TCGTCGGCAGCGTCAGATGTGTATAAGAGACAGTTTTTTTTTTTTTTTTTTTTTTTTT…TC
Settings: aptamer strand: ATP DNA aptamer (quencher-CACCTGGGGGAGTATTGCGGAGGAAGG + anchor), 100 nM annealed; ATP concentration: 500 uM
How it was run: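 Exposure to 500 uM ATP lasted 15 min at 22 °C before imaging, and a selection-buffer image was taken beforehand, for Cy3-labelled switching-strand clusters on a modified Illumina MiSeq flow-cell annealed to 100 nM quencher-labelled ATP aptamer. Five buffer/ATP cycles were run with NaOH stripping and re-annealing between them. The fluorescence ratio per cluster is summed target-cycle over summed buffer-cycle Cy3 intensity, averaged per switch-domain sequence. Clusters outside 100-1000 RFU were excluded.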

Sequence	switch fluorescence ratio
TAAAAATACA	1.1 ± 0.13
GCTCATTTCG	1.02 ± 0.042
GGGGATCCAT	1.02 ± 0.026
ATGAGTATGT	0.9961 ± 0.0014
TTGCTTTGTT	1.0015 ± 0.001
GCATAGCCTG	0.98 ± 0.034
TTTACTGGGG	1.01 ± 0.023
GGCGTTTGCT	0.9827 ± 0.0086
CGGTGGGGGG	1.04 ± 0.03
TCCGATTTGT	1.02 ± 0.08
ATAAAAATAT	1.01 ± 0.035
TCCAGGGTTT	1.06 ± 0.04
TGATTGGTAA	0.939 ± 0.021
TAGGGGTGCC	0.98 ± 0.034
GAGGCCATTT	1.01 ± 0.046
TCGGCCGTCC	1.056 ± 0.009
TCTGATTGTG	0.972 ± 0.047
CATGATACGG	1.03 ± 0.011
TCGTCTGTGG	0.974 ± 0.029
CAATTCGCTA	1.21 ± 0.089
GGATGGGGCC	0.995 ± 0.032
GATTAGGCAT	0.996 ± 0.039
ACGGGGGAGG	1.02 ± 0.028
GTATTTATGA	0.974 ± 0.0056
TTGGGCAGTT	0.98 ± 0.051

Sequence	switch fluorescence ratio
TAATCGATAT	0.9803 ± 0.0026
GTTTTTTGGT	0.982 ± 0.03
ACATGTCTGG	1.001 ± 0.0016
TCGGGGCCAT	1.02 ± 0.062
TTCATCCGTA	1.39 ± 0.23
CGGGGTGTTA	1.07 ± 0.057
TATTAAGTGG	1.05 ± 0.071
TTTGTATTTA	1.03 ± 0.041
GGCGTGGGGG	1.051 ± 0.01
GACGTTATTG	1.03 ± 0.013
TGGTCGTCGG	0.985 ± 0.037
CTGTGGGTTA	0.9595 ± 0.004
TGCGGGGGTT	1.02 ± 0.03
GCGACGTTGC	0.999 ± 0.036
ATCCTCTGCC	3.16 ± 0.72
GTGTGAGGAG	1.05 ± 0.081
GCTGAAAGGC	1.09 ± 0.061
TTGGGAAATG	0.985 ± 0.042
TGGGCGGGGG	1.03 ± 0.036
ACCGTGCTTA	1.01 ± 0.032
TTAACTGGGG	1.11 ± 0.13
GGGTGAACAT	0.98659 ± 0.00029
GTTTGTTGGT	0.977 ± 0.013
GTTATTCAAT	0.9724 ± 0.0018
AAGTAACGGT	1.02 ± 0.047

Sequence	switch fluorescence ratio
TGCAATGATG	1.04 ± 0.039
TCAGGGGGAA	1.01 ± 0.024
TAAAAGGGTA	1 ± 0.019
AGGAATTGAT	1.13 ± 0.27
GTGAGAGCGG	0.963 ± 0.033
CTGGGACCTA	1.02 ± 0.027
CGTTGAGGTG	1.02 ± 0.02
TCCGATGAGG	1.05 ± 0.074
ACTTTGCTCT	1.032 ± 0.0064
CTCGGGAGTA	1 ± 0.042
TGAAAAAATC	0.987 ± 0.019
CATGAATTTT	0.982 ± 0.047
CTGGCGCGGG	1.02 ± 0.042
GGGGGGGTCA	0.994 ± 0.027
TGCGGATGTT	0.953 ± 0.013
AGACAAATGC	1.19 ± 0.21
AAGTGGGTGT	0.99 ± 0.059
GTTGGCGGGG	0.976 ± 0.015
AGGCGCGGTG	1.03 ± 0.0079
AAGTGGGGTA	1.03 ± 0.022
AAAGATATAA	1.03 ± 0.036
ATGTTAACTA	0.985 ± 0.065
GTTTTTCGCC	1 ± 0.02
TTTATCGGG	1.01 ± 0.044
ACTCTGGGC	1.17 ± 0.21

Sequence	switch fluorescence ratio
CTGCAACGGA	1.13 ± 0.056
GGTGACGTGG	1.02 ± 0.012
AATTACGGGT	1 ± 0.021
GAGTTTGAAT	0.969 ± 0.021
CATTTATAAT	1.03 ± 0.02
GGATGGTGTT	0.958 ± 0.026
GGATTTGCCT	0.997 ± 0.041
CGTGCTGTTA	0.98019 ± 0.0002
TTTTATGTT	0.978 ± 0.018
GATTGTTCGT	1.031 ± 0.0085
TCTTACGGCT	1.03 ± 0.033
TCGGCGAATG	1.02 ± 0.024
CGCTGGATGG	0.985 ± 0.0075
TGTGAATTCT	0.993 ± 0.023
GGAGTCATTT	1 ± 0.014
CTCGTTCCGG	0.997 ± 0.043
GAAGTGTTGG	1.004 ± 0.0049
CGATACTTGA	0.99 ± 0.038
TTTGCTTACG	1.1 ± 0.13
AAATGGTAAT	0.978 ± 0.036
AAATGGGGTC	0.998 ± 0.023
TATTTTGAAG	1.07 ± 0.13
GTTGTTGGGT	0.983 ± 0.034
GCGGGGGGGA	1.01 ± 0.038
ATGGAGATAG	1.01 ± 0.026

Sequence	switch fluorescence ratio
AATATTTAGT	1 ± 0.024
GTGCGTTTGG	0.971 ± 0.022
TTGTTTTGAG	0.994 ± 0.013
TGGATAGTGT	0.998 ± 0.011
CGGGCCACTT	1.008 ± 0.0076
CTTAGTTAGC	1.02 ± 0.013
CTCTTGAATA	0.9957 ± 0.0015
CTGGGTCGGG	0.992 ± 0.0079
AGGCCCGAGC	0.98 ± 0.073
AGGTTTGCAA	1.04 ± 0.028
TTCGTCATGG	1.027 ± 0.0075
TTTACAGCAT	1.06 ± 0.14
AATTAGGTGG	1.01 ± 0.039
GATGGGAGTG	1 ± 0.029
GGGTATGGCT	1.02 ± 0.018
AAAGAAGCAT	1.001 ± 0.0059
AAGATTCTCG	1.004 ± 0.0095
ATGTTTGTTT	0.993 ± 0.05
GAGGGCTACT	1.04 ± 0.041
GAAGTTAGGG	0.981 ± 0.032
CGTAGCATCG	1.1 ± 0.038
TCAAACGCGT	1.01 ± 0.037
TAGAAGGGCA	0.988 ± 0.015
CAGTCGGAGA	1.02 ± 0.037
TGGGGAAATA	1.41 ± 0.57

Sequence	switch fluorescence ratio
ACGTAAAAGT	1.25 ± 0.41
GACGTGTGTC	0.983 ± 0.023
GATTCAGCGG	0.97 ± 0.015
GACGAGATAG	1.17 ± 0.076
TGGCGCTGGG	0.978 ± 0.022
TTAATAGTCA	1 ± 0.014
CGCTAGGTGT	2.33 ± 0.76
GTTATGACTC	1 ± 0.076
TACTTAGCGA	1.18 ± 0.044
CGTTAGTCGT	0.981 ± 0.039
TGAAGTATGA	1.03 ± 0.045
ATTACTGTGC	0.94 ± 0.02
TCTCTTTCTG	0.9729 ± 0.0073
TTACATTTGG	0.9846 ± 0.0036
AACAGGGTTT	1.01 ± 0.075
GGGGTGTAGC	0.992 ± 0.042
AGGTTCCTCT	1.04 ± 0.019
CGGTTGGCGG	0.996 ± 0.038
CAGTGGTGGG	1.01 ± 0.04
CCTTATTAGG	1.002 ± 0.0075
GAGTCAGTAT	1.03 ± 0.039
TTTGATAGTT	1.01 ± 0.018
TCCAGCGCAC	3.81 ± 1.1
TCACAGGGGG	1.14 ± 0.12
GGGGTGGGGA	1 ± 0.036

Sequence	switch fluorescence ratio
GGTTTGGTTA	1 ± 0.027
TGTGTGTTAG	0.985 ± 0.016
ATGAGAGGTT	0.994 ± 0.049
ACAGTGCATT	1.03 ± 0.025
GTTTTTTTT	1.05 ± 0.069
TTTCGAGGAA	1.03 ± 0.019
AGAATGCAGC	0.995 ± 0.041
GCGGCCTCTT	0.993 ± 0.013
TTTCGCGTGG	0.971 ± 0.028
TCAGATAAAT	1.27 ± 0.35
CGGGATGACA	0.979 ± 0.046
AATAAAAAGT	0.982 ± 0.023
GACGGGGAGA	1.06 ± 0.038
AACGGCGGTG	1.01 ± 0.019
AGGGTTTTGG	0.999 ± 0.03
AGTGATGCTT	0.992 ± 0.036
TAAGATTGTT	1.02 ± 0.017
CCATTGTCCC	1.05 ± 0.029
GCCAGGGTCA	1.025 ± 0.0066
CGGAAGGGAG	0.996 ± 0.015
AGCATTGGGT	1.002 ± 0.0015
CGAATAGCGG	0.9757 ± 0.002
TGGGAGAAAG	0.999 ± 0.024
GGTTGTGAGT	0.993 ± 0.02
TAGTGTTGGT	0.975 ± 0.016

Sequence	switch fluorescence ratio
TGAAGGATGA	0.9978 ± 0.0058
CGGGGGCCGA	1 ± 0.019
TAACCGCTTT	1.55 ± 0.7
CGATGGGCTA	1.02 ± 0.056
TTCATTCATG	0.97 ± 0.0033
AGGTGCTGGT	0.997 ± 0.033
TGGGAAAATG	1.018 ± 0.0069
CAAGGAATTT	0.969 ± 0.023
TGACATTCGA	1.0321 ± 0.00051
CGAACGAAAA	0.992 ± 0.04
GGTGATCGGC	0.986 ± 0.029
GGGGGGAGAC	1.07 ± 0.19
ATGGCCTATA	1.01 ± 0.028
GCTTCAAGGC	1.03 ± 0.045
ACAGAGGCAC	1.02 ± 0.062
CGGCCGAGAG	1.02 ± 0.018
AGGTCCTTCA	1.29 ± 0.046
AAAGCGGGGG	1.04 ± 0.016
GGTTTGCTGA	1.01 ± 0.043
TCAAACGTAG	0.9793 ± 0.0085
ATGTCATGGG	0.998 ± 0.032
GCTTAAATCT	1.01 ± 0.029
AAACGAGGGT	1.02 ± 0.03
CCACTAATGG	1.03 ± 0.013
TCTCAAGTGC	1.118 ± 0.0083
